Molecular target: T1, Recombinant N-terminal (His)6-tagged P. abyssi ASH-Ski2, full length (Pyrococcus abyssi, UniProt Q9V2M1 1-855)
T1 sequence (looked up): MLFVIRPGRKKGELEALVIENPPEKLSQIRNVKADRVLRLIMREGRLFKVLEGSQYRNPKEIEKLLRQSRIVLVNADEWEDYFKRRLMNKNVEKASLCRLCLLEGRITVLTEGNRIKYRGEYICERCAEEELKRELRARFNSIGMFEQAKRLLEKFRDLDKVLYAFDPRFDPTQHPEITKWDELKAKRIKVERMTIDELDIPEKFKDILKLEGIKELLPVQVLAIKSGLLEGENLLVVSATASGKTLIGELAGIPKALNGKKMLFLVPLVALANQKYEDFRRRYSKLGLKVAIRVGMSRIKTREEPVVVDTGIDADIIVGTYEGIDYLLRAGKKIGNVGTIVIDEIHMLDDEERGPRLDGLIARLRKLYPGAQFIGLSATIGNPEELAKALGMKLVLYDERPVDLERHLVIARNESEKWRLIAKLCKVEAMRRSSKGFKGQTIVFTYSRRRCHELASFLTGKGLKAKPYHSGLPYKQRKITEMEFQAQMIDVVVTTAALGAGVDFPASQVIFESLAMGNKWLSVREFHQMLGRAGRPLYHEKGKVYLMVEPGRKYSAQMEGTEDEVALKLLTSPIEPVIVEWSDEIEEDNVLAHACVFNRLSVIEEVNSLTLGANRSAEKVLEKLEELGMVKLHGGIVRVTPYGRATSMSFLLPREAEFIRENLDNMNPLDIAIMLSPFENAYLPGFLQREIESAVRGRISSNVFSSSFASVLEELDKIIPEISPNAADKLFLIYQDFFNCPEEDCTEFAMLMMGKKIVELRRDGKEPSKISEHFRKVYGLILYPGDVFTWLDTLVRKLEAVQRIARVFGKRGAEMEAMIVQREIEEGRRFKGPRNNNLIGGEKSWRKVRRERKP
Assay: co-sedimentation

B1: Recombinant aRNase J from P. abyssi with C-terminal (His)6-tag (enzyme, Pyrococcus abyssi, UniProt Q9V076 1-451, looked up)
chain: MWEEINMIKIYTLGGYEEVGKNMTAVEYNGEVVIVDMGIRLDRVLIHEDVEFQKMSSKDLRKLGAIPDDRPIRNKKVVAIALSHGHLDHIGAVGKLAPHYPDVPIYGTPYTIRLAKSEIKGEEYFEVTNPLYETNYGEIVQVSENLAIEFVQITHSIPQSSIVVIHTPEGAVVYACDYKFDNNHPYGERPDYKRLKELGKEGVKVLIAESTRVAEETKTPSEAVAKMLLEDFFLYEGMEADGLIATTFASHIARLQELIEIANKMGRQAIFIGRSLAKYTGIAKQLGLIKMKGSRVLRSPNAVSKVLKEVSQARENYLLIVTGHQGEPGAILTRMANGELYDIGPRDTVVFSAGVIPNPLNVAQRYALETKLRMKGVRMIKNLHVSGHASKEDHRYLIRMLNPEYIVPAHGEFRMLTHYAELAEEEGYMIGKEVFISRNGHVVEIPGSLEG
binding result: binds
